Test results: PMC8448314

Molecular target: Fc-tagged SARS-CoV-2 RBD (residues 319-535, C-terminal human IgG4 Fc region) (SARS-CoV-2 | human) (UniProt P0DTC2)
Experiment: SEC; Superose 6 Increase 10/300 GL gel filtration of each purified protein alone

Fc-tagged SARS-CoV-2 RBD (residues 319-535, C-terminal human IgG4 Fc region) (from UniProt P0DTC2 319-535) (Fc fusion)
stoichiometry N: 2
